B1: APBB1IP (parent)
chain: PPEPLSQVSMWDQRWQDHQPLLPI
B2: LARP4 (parent)
chain: WTVANMEEIKKLTTDPDLILEVLR

Variants of: B1
Assay: protein stability index of a GFP-peptide fusion (GPS, HEK-293T) (PSI 1-6); higher = more stable
Conditions: c terminus: a fixed tail appended
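Further: lentivirally expressed fusions sorted by FACS into six bins by GFP to DsRed ratio, PSI derived from sequencing read proportions per bin multiplied by bin number.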

Protein stability index: each site, then its substitutions
L22: K 4.04 | C 3.5 | W 2.4 | I 2.49 | S 3.55 | D 3.89 | V 3.2 | Y 2.44 | R 3.54 | F 2.77 | H 3.29 | A 3.4 | N 3.55 | T 3.74 | P 3.12 | M 2.58 | G 3.8 | Q 3.68
Q13: R 2.6 | G 2.63 | F 2.4 | L 2.16 | I 2.72 | Y 2.51 | K 2.76 | M 3.46 | D 3.51 | V 2.49 | W 2.91 | P 2.77 | T 2.78 | E 3.56 | N 3.5 | H 2.79 | S 3.29 | A 2.54 | C 2.56
P20: C 2.95 | H 3.23 | V 2.91 | Q 3.26 | D 3.33 | T 2.84 | L 2.61 | Y 2.33 | S 3.37 | A 2.75 | M 3.03 | W 2.33 | N 3.14 | K 2.05 | G 3.38 | R 2.8 | I 2.77 | E 3.29 | F 2.37
H18: E 4.14 | M 2.71 | F 2.4 | T 3.44 | S 3.11 | D 4.05 | Q 3.01 | V 2.83 | W 3.02 | A 2.79 | L 3.09 | P 3.34 | C 3.12 | N 2.97 | G 3.55 | K 3.1 | I 2.69 | Y 3.2 | R 2.74
I24: V 3.29 | N 3.12 | K 3.92 | D 4.43 | W 2.04 | H 3.58 | G 4.44 | F 2.72 | T 3.62 | Y 3.54 | P 3.79 | M 3.24 | Q 3.93 | C 2.69 | R 3.12 | L 3.26 | S 3.55 | A 3.26 | E 3.26
W11: A 4.11 | L 3.77 | T 3.73 | Q 4.25 | G 4.18 | Y 3.51 | F 3.55 | C 3.16 | H 3.83 | M 3.57 | V 3.9 | R 3.4 | S 4.04 | N 4.06 | E 4.18 | D 4.4 | I 3.1 | P 3.08
M10: V 3.36 | E 3.98 | R 3.37 | Q 3.2 | T 2.87 | F 2.94 | H 3.42 | C 3.52 | G 3.3 | I 2.79 | W 3.12 | K 2.92 | S 3.35 | Y 2.51 | P 3.87 | N 3.54 | L 3.16 | D 4.12
D12: R 2.9 | S 2.73 | I 2.48 | F 2.13 | E 2.64 | H 2.6 | M 2.33 | A 2.64 | L 2.22 | Q 2.11 | W 1.85 | N 2.82 | T 3.07 | K 3.37 | P 2.89 | Y 2.31 | G 2.15 | V 2.23 | C 2.34
L21: A 3.88 | N 3.88 | K 3.44 | W 2.74 | H 3.39 | E 4 | I 2.58 | Y 3.33 | S 3.26 | G 3.76 | D 4.13 | Q 3.68 | T 3.93 | V 3.28 | M 3.4 | C 3.4 | P 3.54 | R 3.58 | F 2.24
Q16: V 2.7 | S 2.61 | F 2.83 | N 2.85 | P 3.84 | E 2.92 | G 2.98 | K 3.06 | D 3.52 | C 2.6 | A 2.23 | M 2.99 | H 2.53 | R 2.68 | L 2.46 | T 2.46 | Y 2.98 | W 2.73 | I 2.72
D17: I 2.57 | M 3.24 | W 2.79 | Y 2.25 | R 2.91 | E 2.97 | N 3.15 | H 2.44 | V 2.54 | F 2.08 | Q 2.57 | K 2.78 | P 3.23 | S 2.53 | G 2.81 | T 2.57 | C 2.6 | L 3.26 | A 2.5
W15: Y 3.14 | S 3.95 | P 3.9 | I 3.65 | F 3.62 | C 3.39 | N 3.7 | V 3.93 | H 4.17 | D 4.34 | R 3.41 | L 3.28 | M 4.02 | Q 4.36 | K 4.05 | T 4.39 | G 3.62 | E 4.03 | A 3.88
P23: Y 2.06 | Q 2.39 | K 2.62 | W 1.36 | E 3.03 | R 2.38 | L 1.99 | A 2.05 | C 3.48 | N 3.23 | F 1.67 | I 2.04 | T 2.77 | V 2.92 | M 2.08 | H 2.05 | S 2.05
Q19: S 2.31 | V 2.33 | W 2.21 | T 3.02 | L 2.83 | C 2.61 | M 2.72 | H 2.48 | R 3 | N 3 | P 2.63 | A 3.04 | Y 2.44 | G 3.33 | F 2.89 | E 3.48 | I 2.47 | K 2.87 | D 3.74
R14: K 3.06 | L 3.01 | D 3.59 | I 3.14 | H 3.19 | N 3.86 | C 2.79 | Q 2.88 | A 2.75 | P 2.9 | E 3.74 | M 2.68 | T 3.39 | W 3.29 | V 2.92 | F 2.86 | Y 3.12 | G 3.98 | S 3.84

Variants of: B2
Assay: as above
Conditions: c terminus: a fixed tail appended

Protein stability index of substitutions, site by site:
L18: M 2.55 | C 2.34 | G 2.95
P16: E 2.22 | I 1.67
T13: Q 1.58 | I 2.04 | M 1.87
D15: F 1.7 | K 2.05
L23: N 3.56 | A 2.37
N5: W 1.76 | P 1.76
L20: R 2.38 | C 2.56
L12: R 2.34 | A 2.17 | T 2.22
V22: N 3.25 | R 2.48 | S 2.56 | P 2.23
T2: L 2.08 | R 2.59
D17: E 1.79 | P 2.2 | M 2.16
V3: F 2.32 | I 2.37
R24: A 2.12
K10: C 2.02 | T 1.71 | V 2.07 | S 2.07 | I 1.54
T14: N 2.52 | R 2.14 | P 2.01
W1: N 2.49 | L 2.14 | E 2.75 | Q 2.91 | M 2.88
M6: A 1.33
E7: H 1.59 | G 2.4
E8: P 1.82 | F 1.7
E21: D 2.31 | P 1.98
A4: D 3.25
I9: D 2.76 | Q 2.14
